Measurements: publication PMC11082957

Key:
α-synuclein (α-syn) [1] = target: α-synuclein (α-syn) (UniProt P37840); test: ThT fluorescence of agitation-induced self-aggregation; details: reference: α-syn not treated with PLK3; sites S129
α-synuclein (α-syn) [2] = target: α-synuclein (α-syn) (UniProt P37840); test: ThT fluorescence of ONE-induced self-aggregation; details: reference: α-syn not treated with PLK3; sites S129

α-synuclein (α-syn) (from UniProt P37840) PLK3-phosphorylated α-syn (p-α-syn)
fold change (α-synuclein (α-syn) [1]): stronger; reference 1
fold change (α-synuclein (α-syn) [2]): stronger; reference 1
